From the DeepSol protein solubility set

assay: soluble on expression in E. coli; label from the status in PepcDB or PDB records

| Sequence | soluble on expression in E. coli |
| --- | --- |
| MSLVMSGEKMKVIIVEDEFLAQQELSWLINTHSQMEIVGSFDDGLDVLKFLQHNKVDAIFLDINIPSLDGVLLAQNISQFAHKPFIVFITAWKEHAVEAFELEAFDYILKPYQESRIINMLQKLTTAWEQQNNAASGLASAAPRENDTINLIKDERIIVTSIHDIYYAEAHEKMTFVYTRRESFVMPMNITEEGHHHHHH | not soluble |
| MSLVSIKDIARYCGVSAMTVSRALNNSDDIAEATKEKILKVCEELKYKPNSAAKSLITKKTNMIGLIIPDIANQYYANISKGVSSYIEKHGYGLILCNSNRKKPNEVKYLDFLSEGRVDGIIILPVKPRKEDYEDISRQIPMVMADNFAKGLEVNFVGIDNYAGAIKIITHMVNQGYKKIGVILGDKDSTASSERLNGYKKVLEDKGISYNEDIVIHSNSTFEDGFNIASILIEKGVDSIFAINDTVAMGVIKYCYEKGIKLPEELGLAGYDNIEQAAMLTIPLTTVDQDNKKIGTIAAKMLVDAIKGNAKKTEKIILEPTLVIRKSCGEEGHHHHHH | soluble |
| MSLVTIKEIASAVGVSSATVSRVLNYDPTLSISTRKRQAIIETAEALNYATPRNRNRAAAQAVGSGLKIALVHFLDPAQELADPYYVGVRLGIESRCQALNSDVVKVFLTGNTPEATILEGASGVVAVGHYYGDELEWLRRHSRHLVFADYAPAGDMEDTVLSDVSQAMIRLLEAVHAMGYRRIGFIGWIDAFYGPDNIHSERRCHTYIDWMTKTGLFDPELCLVDPMTPDSGYRLAKAMLSKPNPPKILITCNDNMALGAYRAINEMGLRIPDDVAVASFNDIPVAQFLGPPLSTVKIPAELIGETAVDLLVERLSGREVAKKVVFGTEIIWRASTEGHHHHHH | soluble |
| MSLYDNDLWFATINLPYRQKLELLRIYKTSDEILYNFKNSELIQKYKFDIEKINYIKDEMKKSGMKIVFWNDDDYPKVLKNYDDMPYGLFYMGNIKKLNELNYNVAIVGSRRCTQYGKDITTIISREISINGIGIISGMARGIDTYAHKICLENNGYTCAVLGCGADVIYPKENKNLYCQIIRNGCIISQYKPNTKPLPYNFPIRNKIISGLSNLVLVTEADIKSGSIITASSALEQGKDVGAVPGSVFSKMSRGTNKLIQDGAHVIKDIDDVFGILNFQKINFKKIRNNSSYSSMPENQRQIYDLVSDKPIHVDDIKRCLNIDIQELYELLFEMQLKNKILCLSGSYYVRVNDCLEGHHHHHH | soluble |
| MSLYFNKVLGMKEFGKDEKVFYRVAIRAIILQGDKILMVKSNTGDYKFPGGGVEKGETPEETLRREVQEETGYILNEVKEKFGVLIERDRRRRMGCTIFEMTSHYYLCSVIEERGEQHLDKYEEELGFTPIWISLDEVIRENENILNQREKINPWVKRETFVLKKIKEYLNENEGHHHHHH | soluble |
| MSLYISYSPLRITFGGGGTDVEPFLSKHGGAVVNATIDRGVSVRYIEDEFQLELSSRDFVRSYIVNMHRAASVTKMMADFLSEAGITNGRVIMSGDAPPGSGLGSSSSAVSALMNLVNSIRGRTVDPATLAEESYNLERNHFHVVLGKQDPYAIAYGGFKYMEFGADGVKREDLGQYSEFTTELQRRILLVYTGKTRQSSEVLMEQVKASEMGDEKTDRNLLQMKDVARRLRDAVVKNDMDEFAHQINRGWEIKKSLSSRITNDHIDRIIALALSNGAQAARLMGGGSQGFVLVMCKPENLNYIQRRMMSISNFVVRTSFDMKGTRMIGHEGHHHHHH | not soluble |
| MSLYKIITSDLDETLLRQDGSISSANVAAIAAASKRGVKFVPNTGRSFLSIQPLLKTLNLYQRPNEYVVSYNGGVVVENQDNRVIVSNEMPYEEAAKAFAIMSEFDVDIHIYTLDHLFIYRPRADDRAYLQTRGVTFTEMTGAFDQFRNAQIMKVIVMNPDVMVRQQVYAAIKAAFTEINCTYSSGIYMEVNHAGVDKGRAILDLGDKLGIKADEIMAIGDNANDLGMLTKVGLPVSVANGIDDVKQVAKFVTPHDYERGVADAIETFILEGHHHHHH | soluble |
| MSLYKLIALDMDGTLLNDDKIISKRNKEAIKKAKNLGYKVVLSTGRPLKGVERYLKELDLVNDDDYAIAFNGGLVQNTKTGEVLGKELMKFEDLDRLYKLSQKFNVNIHMLSINECITPKKNPYTEVEVNINQIPLIEKNFNELPHDTVIVKIMMIDSKEKLDKVEKLLPKEIYDDYSVARSSDIFLEFSPKGVHKGVGLKILSEHLNLKKEELIAVGDAGNDIAMIEYAGLGVAMGNAFPYVKESADYVTDNNETHGVAKVIEKFMLNEGHHHHHH | soluble |
| MSLYKVLALDLDGTVLSDDHTIHPQVKDAIRAAQQHCHVLIVTGRHHTAARPYYDELGLTTPIICCNGTYVYDYASETVLEHNAIDKQDALTFIDLAQEFQLKLVMYIKDAMTYSQRSPIAYMQALEKWAQAASLTHPPQIYAIDSFHQTARDSEFVWKFVVEGLPSSVERLLEHPWVNAHFNGERSWSNRIDFAAKGNSKGLRLAQYVAQLGYAANHVMAIGDNHNDISMLRYAGHGVAMANADDTVKSYARSLCSTDNNHAGLAQLIREHIQGEGHHHHHH | soluble |
| MSLYKVTRGKSEQYLKDERALEDYLIATGLDDCAFKLANGEVRGGRDLLALVEDARAIRSTLHNLHSRYNRSVVEQAAIAGVLSPRITTDIATANEAAAYIARRLDALADEVERGWVGHFTEGEGFRFERTVRGVKEVAAIDDAMLGSADARKLDEYAAVLQEVYPRPGVLRRKEAETAIHGPISLFEAVTDAGRKGVALQRYKGLGEMNPSQLWETTLDTNARSLLQVKVREVDEADDIFTKLMGDVVEPRREFIQENSLHATVDVEGHHHHHH | soluble |
| MSLYVDAGLQPLDKNNKKLVQVHIPEGSSNKQIAAVLEESNVIKSGMVFNYYVKFKNLTDFQAGYYQMSPSMTLDEIGEMLKEGGTPEPTKIADGKVTIPEGYDIDKIGEAIEKNTDFKKADFIALMKNEDFFNQMKAKYPDLLESAATAEGVRYRLEGYLFPATYDYYKKATLPEFVEQMIAKMNTVMEQYTPTIHAKNLTNQQVLTLASLVEKEGVKEADRKQIAQVFFNRLAADMPIQSDISILYALGEHKETVTYADLEVDSSYNLYKNTGYGPGPLDSPSEESIKAVLNPTPSDYLYFVADISTGKVYFSKTYEEHQVLVDQYVNNSSSEEGHHHHHH | soluble |
| MSMKQAEFIQAKGYQARVTRTARAKTASIKVEEGMVSVVVPKALPIERIERILQEKHQWIIDKIALHKGLITSSEKQFVSGEAMPYLGRNYRLKVHAGSFEPVKLVQGRLVVIVPEGSVRSNLVREALIGWYKRSALLKLREKVRRYAKVIGVTPKSVNIKTFKSRWGSCNPKGDLDFNWIIVMAPNRIVDYVVVHELCHLKQLDHSPLFWKEVERVMPDYAECKEWLKNNAPKLTFLEHHHHHH | soluble |
| MSNDKSAEVVVLPRENDEESKEPVLKNQFDLSTFDIDSPEIDLTHTRADHIPDLTGFPKIEELRMRNNLLVSISPTISSLVTLTSLDLYENQLTEISHLESLVNLVSLDLSYNRIRQINGLDKLTKLETLYLVSNKIEKIENLEALTQLKLLELGDNRIKKIENIGHLVNLDELFIGKNKIRQLEGVETLQKLSVLSLPGNRIVKIENVEQLNNLKELYLSDQGLQDIHGVEPLTNLLLLDVANNEIKTFSGVERLESLNDFWANDNKVESFSEIEQLSKLKGLQTVYLERNPFYFNDTNQYRRKVMMTLTQVTQIDATTCRKPIE | not soluble |
| MSNEVEQKKNIKTINDLPGISQTVINKLIEAGYSSLETLAVASPQDLSVAAGIPLSTAQKIIKEARDALDIRFKTALEVKKERMNVKKISTGSQALDGLLAGGIETRTMTEFFGEFGSGKTQLCHQLSVNVQLPPEKGGLSGKAVYIDTEGTFRWERIENMAKALGLDIDNVMNNIYYIRAINTDHQIAIVDDLQELVSKDPSIKLIVVDSVTSHFRAEYPGRENLAVRQQKLNKHLHQLTRLAEVYDIAVIITNQVMARPDMFYGDPTVAVGGHTLYHVPGIRIQLKKSRGNRRIARVVDAPHLPEGEVVFALTEEGIRDAEE | soluble |
| MSNFISPVYEIKSIPIEKISPNDYNPNSVAPPEMKLLYDSIKSDGYTMPIVCYYDKEEDRYSIVDGFHRYRIMLDYSDIYERESGRLPVSVIDKSLDYRMASTIRHNRARGSHDVDLMSQIVKDLHECGRSDNWIAKHLGMDKDEILRLKQITGLASLFKDHEFNQSWEPEELLNE | soluble |
| MSNILIINGAKKFAHSNGQLNDTLTEVADGTLRDLGHDVRIVRADSDYNVKAEVQNFLWADVVIWQMPGWWMGAPWTVKKYIDDVFTEGHGTLYASDGRTRKDPSKKYGSGSLVQDKKYMLSLTWNAPMEAFTEKDQFFHGVGVDGVYLPFHKANQFLGMEPLPTFIANDVIKMPDVPRYTEEYRKHLVEIFG | not soluble |
| MSNINIRVAHEQDAEELHSIMQIAFTPLRELGIDWPSVHADLEMVKDNLRQNTTFVLENEKEIISTITVCYSWSSVKPISGYPFVWWFATRPTYDGQGYGSQLLKYAEETFLRDTLKAAAVTLGTSARLHPWLLNIYEKRGYEIYAKHENDDGDLGVIMRKILIPEQFNDDILGRPPF | not soluble |
| MSNITIYHNPACGTSRNTLEMIRNSGTEPTIILYLENPPSRDELVKLIADMGISVRALLRKNVEPYEQLGLAEDKFTDDQLIDFMLQHPILINRPIVVTPLGTRLCRPSEVVLDILQDAQKGAFTKEDGEKVVDEAGKRLK | soluble |
| MSNKDIRVVVGMSGGVDSSVTAYLLKEQGYDVIGIFMKNWDDTDENGVCTATEDYNDVIAVCNQIGIPYYAVNFEEQYWDKVFTYFLDEYKKGRTPNPDVMCNKEIKFKAFLEHALKLGADYVATGHYARIRRHDDGHVEMLRGVDNNKDQTYFLNQLSQEQLSKVMFPIGDIEKSEVRRIAEEQNLATAKKKDSTGICFIGERNFKEFLSHYLPAQSGEMLTLNGKKMGQHSGLMYYTIGQRHGLGIGGDGDPWFVVGKNLNDNVLYVEQGFHHDALYSDYLIASDYSFVNPSEIDLEKGFECTAKFRYRQKDTKVYVQRENENSIRVTFAEPVRAITPGQAVVFYNQEVCLGGATIDDVYKNEGQLSYVVLEHHHHHH | soluble |
| MSNLDNPGIYYQERFFANDGVPDTGRELIAEYRQLITQFRNFIRDFSTGGFGMIYRDQLKRNYFSHEYRLEINLNHLKNFDEDIEMKLRKFPGKVLPALEEAAKIVADEITTPRPKGEEKLHDIQVTLTLDEYPTSLRQVKSAQVSQVVKISGIIVAAAQVRSKATKVTLQCRQCKHTIPDVSIKPGLEGFALPRTCAAPQQGQMQRCPIDPYIMLPDKCECVDYQTLKLQENPEDVPHGEMPRHLQLFTERYLTDKVVPGNRVTIVGVYSIKKLIQKKGGDKSLQGIRTPYLRVLGIHMETSGPGRTNFTTFTPEEERMFKTLAQRKDAYELIAKSIAPSIYGSADIKKSIACLLFGGARKKLPDGITRRGDINVLLLGDPGTAKSQLLKFVEQVSPIGVYTSGKGSSAAGLTASVIRDPQSRSFIMEGGAMVLADGGVVCIDEFDKMREDDRVAIHEAMEQQTISIAKAGITTTLNSRCSVLAAANSVYGRWDESRGDDNIDFMPTILSRFDMIYIVKDTHDVLKDATLAKHVIEVHVNASAAKERDIAGVPKTATTDSDGVMTMFDTDGFLTIEFLKKFVTYARLNCGPRLTPQASEKLVNHYVKMRNPVVNADAFKSGKKAHNSAIPITVRQLEAIVRIAESIAKMELQQFATDKHVEEALRLFRVSTIEAAATGNLAGVEGFTSTADQEALNRIEVQMKKRFAIGTHVSEHLIVQDFVARQHYRESLVKKVIDNLVRRGDLQQKMQRKMLYRVR | not soluble |
